Test results: publication PMC11140114

Molecular target: recombinant human dynamin-related protein 1 (Drp1), isoform 1 (human) (UniProt O00429)
Sequence (O00429 whole entry, canonical isoform): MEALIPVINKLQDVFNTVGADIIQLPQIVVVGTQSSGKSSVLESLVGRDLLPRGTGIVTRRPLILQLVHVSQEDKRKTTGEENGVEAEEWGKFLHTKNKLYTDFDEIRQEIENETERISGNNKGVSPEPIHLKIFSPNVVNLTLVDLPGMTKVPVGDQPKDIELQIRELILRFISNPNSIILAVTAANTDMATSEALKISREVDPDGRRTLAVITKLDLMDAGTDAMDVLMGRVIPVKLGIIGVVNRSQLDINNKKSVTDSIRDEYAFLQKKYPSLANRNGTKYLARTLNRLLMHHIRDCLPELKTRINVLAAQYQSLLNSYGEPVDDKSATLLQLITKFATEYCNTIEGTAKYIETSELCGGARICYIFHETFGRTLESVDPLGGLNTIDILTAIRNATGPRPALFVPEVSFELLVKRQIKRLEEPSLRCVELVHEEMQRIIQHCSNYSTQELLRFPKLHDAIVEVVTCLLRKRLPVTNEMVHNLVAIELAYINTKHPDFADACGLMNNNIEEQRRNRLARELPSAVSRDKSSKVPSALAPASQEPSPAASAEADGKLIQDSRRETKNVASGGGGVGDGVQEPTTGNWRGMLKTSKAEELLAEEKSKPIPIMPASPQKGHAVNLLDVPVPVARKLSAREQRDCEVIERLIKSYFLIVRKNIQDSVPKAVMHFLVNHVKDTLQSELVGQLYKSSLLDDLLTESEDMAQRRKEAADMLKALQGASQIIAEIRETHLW

GTPase rate of 100 nM Drp1 with 0, 10, 100 or 1,000 nM Nb (continuous regenerative assay, 37°C); factor of increase after addition of a 10-fold molar excess of D63: 1.7 fold
B1: Drp1-specific nanobody D63 (VHH)
VHH: QVQLVESGGDLVQPGGSLKLSCAVSGVSDSLSSFYLMAWHRQAPGKQREMIADIVSGKATYADSVKGRFTISRDNAENTAYLQMNSLKPEDTAVYYCNVLIQNRSTFQSYWGQGTQVTVSS
